Results: US11414460B2, “KRAS-specific capture agents, compositions, and methods of making and using” (Institute for Systems Biology, priority 2019, dated 2022)
Positions of bridges follow the written chain, without caps; N, C: chain ends. Non-standard residues stand in square brackets, D forms with d. Residues, ends and D or L forms follow the SMILES beside them. Triazole bridges read from a SMILES are 1,4-linked. No end group written: not given here. ξ: configuration not given here. dPhe(4-guanidino) = N=C(N)Nc1ccc(C[C@@H](N)C(=O)O)cc1; Phe(4-guanidino) = N=C(N)Nc1ccc(C[C@H](N)C(=O)O)cc1; ξLys(N3) = [N-]=[N+]=NCCCCC(N)C(=O)O; Aha = [N-]=[N+]=NCC[C@H](N)C(=O)O; Pra = C#CC[C@H](N)C(=O)O

Tests used:
KRAS (G12D) [1] = biological target: T1, KRAS (G12D) (Homo sapiens, UniProt P01116, G12D); experiment: EC50 for KRAS (G12D); type: binding
KRAS (WT) = KRAS (WT) (Homo sapiens, UniProt P01116); experiment: EC50 for KRAS (WT); type: binding
KRAS (G12D) [2] = biological target: T1, KRAS (G12D); experiment: ELISA binding of cyclic peptides to KRAS (G12D); settings: absorbance units; for ELISA binding compared with LRGGnf: FIG. 3 and FIG. 4, 5 μM and 20 μM peptide, KRAS (WT) and KRAS (G12D)
Experimental: FIG. 2 is a graph of a single point ELISA assay comparing the binding (measured in absorbance units, A.U.) of cyclic peptide 7b10 (LRGDGnf; SEQ ID NO:5) and LRGGnf (SEQ ID NO:4) to KRAS (WT) and KRAS (G12D).
FIG. 3 is a graph of ELISA assays of four peptides (LRGGnf (SEQ ID NO:4), LRG (F—Br) (SEQ ID NO:6), LRGGnf-Az3 (SEQ ID NO:4), and LRGGnf-Az2 (SEQ ID NO:4)) at two different concentrations (5 μM and 20 μM) to KRAS (WT) and KRAS (G12D) comparing the binding (measured in absorbance units, A.U.). […] All of the cyclic peptides show preferential binding to KRAS (G12D) over KRAS (WT).
FIG. 4 is a graph of ELISA assays of four peptides (QDNY (SEQ ID NO:14), QNGnfY (SEQ ID NO:24), QQGnfGnf (SEQ ID NO:3), and LRGGnf (SEQ ID NO:4)) at two different concentrations (5 μM and 20 μM) to KRAS (WT) and KRAS (G12D) comparing the binding (measured in absorbance units, A.U.). […] All of the cyclic peptides show preferential binding to KRAS (G12D) over KRAS (WT).

Compound	ELISA binding compared with LRGGnf (KRAS (G12D) [2])	other results
N=C(N)Nc1ccc(C[C@H]2NC(=O)[C@@H](Cc3ccc(NC(=N)N)cc3)NC(=O)[C@@H](CCC(N)=O)NC(=O)[C@@H](CCC(N)=O)NC(=O)[C@@H](N)Cc3cn(nn3)CCCCC(C(N)=O)NC2=O)cc1 (stereo partly shown) [QQGnfGnf] (H-[Pra][dQ][dQ][dPhe(4-guanidino)][dPhe(4-guanidino)][ξLys(N3)]-NH2; triazole 1-6)		EC50 (KRAS (G12D) [1]): 1000 nM; EC50 (KRAS (WT)): 3000 nM
QDNY: cyclic peptide with variable region QDNY (SEQ ID NO:14) (also: cyclic peptide, variable region only, ring closure not given here)	more so	
LRGGnf: cyclic peptide with variable region LRGGnf (SEQ ID NO:4) (LRG[Phe(4-guanidino)]; also: cyclic peptide, only variable region given)		binding compared to LRGDGnf, single point ELISA (KRAS (G12D) [2]; FIG. 2, single point ELISA to KRAS (WT) and KRAS (G12D)): 5 times
LRGGnf-Az3: cyclic peptide LRGGnf (SEQ ID NO:4) with azidoornithine (OrnN3 or Az3) (LRG[Phe(4-guanidino)]; also: cyclic peptide, only variable region given, azidoornithine (Az3) modification, position not given here)	comparable to LRGGnf	
LRG (F—Br): cyclic peptide with variable region LRGF-Br (SEQ ID NO:6), F—Br is bromophenylalanine (LRG[bromophenylalanine]; also: cyclic peptide, only variable region given)	noticeable worse	
CC(C)C[C@@H]1NC(=O)[C@@H](N)Cc2cn(nn2)CC[C@@H](C(N)=O)NC(=O)[C@H](Cc2ccc(NC(=N)N)cc2)NC(=O)CNC(=O)[C@H](CCCNC(=N)N)NC1=O [LRGGnf-Az2] (H-[Pra]LRG[Phe(4-guanidino)][Aha]-NH2; triazole 1-6; N-terminus and C-terminus assumed)	slightly better	
